Data published in patent publication US9539367B2, “Gallium inhibits biofilm formation” (priority 2003, dated 2017).

Tested on: P. aeruginosa biofilm
Assay: Biofilm formation of GFP-labeled P. aeruginosa in continuous culture flow cells
Format: cell-based
Settings: for effect on P. aeruginosa biofilm formation: Fe chelation, concentrations that did not alter growth (lactoferrin 20 μg ml)

| Molecule | effect on P. aeruginosa biofilm formation | effect on established biofilm (once the biofilm was established) |
| --- | --- | --- |
| conalbumin: Fe chelator (protein, UniProt P02789 20-705, looked up) Ovotransferrin: APPKSVIRWCTISSPEEKKCNNLRDLTQQERISLTCVQKATYLDCIKAIANNEADAISLDGGQAFEAGLAPYKLKPIAAEVYEHTEGSTTSYYAVAVVKKGTEFTVNDLQGKTSCHTGLGRSAGWNIPIGTLLHRGAIEWEGIESGSVEQAVAKFFSASCVPGATIEQKLCRQCKGDPKTKCARNAPYSGYSGAFHCLKDGKGDVAFVKHTTVNENAPDQKDEYELLCLDGSRQPVDNYKTCNWARVAAHAVVARDDNKVEDIWSFLSKAQSDFGVDTKSDFHLFGPPGKKDPVLKDLLFKDSAIMLKRVPSLMDSQLYLGFEYYSAIQSMRKDQLTPSPRENRIQWCAVGKDEKSKCDRWSVVSNGDVECTVVDETKDCIIKIMKGEADAVALDGGLVYTAGVCGLVPVMAERYDDESQCSKTDERPASYFAVAVARKDSNVNWNNLKGKKSCHTAVGRTAGWVIPMGLIHNRTGTCNFDEYFSEGCAPGSPPNSRLCQLCQGSGGIPPEKCVASSHEKYFGYTGALRCLVEKGDVAFIQHSTVEENTGGKNKADWAKNLQMDDFELLCTDGRRANVMDYRECNLAEVPTHAVVVRPEKANKIRDLLERQEKRFGVNGSEKSKFMMFESQNKDLLFKDLTKCLFKVREGTTYKEFLGDKFYTVISSLKTCNPSDILQMCSFLEGK | duplicated | – |
| lactoferrin: Fe-binding protein (protein, UniProt P02788 20-710, looked up) Lactotransferrin: GRRRSVQWCAVSQPEATKCFQWQRNMRKVRGPPVSCIKRDSPIQCIQAIAENRADAVTLDGGFIYEAGLAPYKLRPVAAEVYGTERQPRTHYYAVAVVKKGGSFQLNELQGLKSCHTGLRRTAGWNVPIGTLRPFLNWTGPPEPIEAAVARFFSASCVPGADKGQFPNLCRLCAGTGENKCAFSSQEPYFSYSGAFKCLRDGAGDVAFIRESTVFEDLSDEAERDEYELLCPDNTRKPVDKFKDCHLARVPSHAVVARSVNGKEDAIWNLLRQAQEKFGKDKSPKFQLFGSPSGQKDLLFKDSAIGFSRVPPRIDSGLYLGSGYFTAIQNLRKSEEEVAARRARVVWCAVGEQELRKCNQWSGLSEGSVTCSSASTTEDCIALVLKGEADAMSLDGGYVYTAGKCGLVPVLAENYKSQQSSDPDPNCVDRPVEGYLAVAVVRRSDTSLTWNSVKGKKSCHTAVDRTAGWNIPMGLLFNQTGSCKFDEYFSQSCAPGSDPRSNLCALCIGDEQGENKCVPNSNERYYGYTGAFRCLAENAGDVAFVKDVTVLQNTDGNNNEAWAKDLKLADFALLCLDGKRKPVTEARSCHLAMAPNHAVVSRMDKVERLKQVLLHQQAKFGRNGSDCPDKFCLFQSETKNLLFNDNTECLARLHGKTTYEKYLGPQYVAGITNLKKCSTSPLLEACEFLRK | profoundly inhibited biofilm formation | unable to alter the biofilm |
